“Also recorded” adds a separate entry of the source.
B1: Casp3-ER(T2): full length murine Caspase-3 fused to ER(T2) ligand binding domain, SEQ ID NO: 37 (protein)
chain: MENNKTSVDSKSINNFEVKTIHGSKSVDSGIYLDSSYKMDYPEMGICIIINNKNFHKSTGMSSRSGTDVDAANLRETFMGLKYQVRNKNDLTREDILELMDSVSKEDHSKRSSFVCVILSHGDEGVIYGTNGPVELKKLTSFFRGDYCRSLTGKPKLFIIQACRGTELDCGIETDSGTDEEMACQKIPVEADFLYAYSTAPGYYSWRNSKDGSWFIQSLCSMLKLYAHKLEFMHILTRVNRKVATEFESFSLDSTFHAKKQIPCIVSMLTKELYFYHLEPSAGDMRAANLWPSPLMIKRSKKNSLALSLTADQMVSALLDAEPPILYSEYDPTRPFSEASMMGLLTNLADRELVHMINWAKRVPGFVDLTLHDQVHLLECAWLEILMIGLVWRSMEHPVKLLFAPNLLLDRNQGKCVEGMVEIFDMLLATSSRFRMMNLQGEEFVCLKSIILLNSGVYTFLSSTLKSLEEKDHIHRVLDKITDTLIHLMAKAGLTLQQQHQRLAQLLLILSHIRHMSNKGMEHLYSMKCKNVVPLYDLLLEAADAHRLHAPTSRGGASVEETDQSHLATAGSTSSHSLQKYYITGEAEGFPATA
modifications: fusion gene Casp3-ER(T2)
B2: Casp3-ED4ER(T2): full length murine Caspase-3 fused directly to N-terminal shortened ER(T2) domain, SEQ ID NO: 41 (protein)
chain: MENNKTSVDSKSINNFEVKTIHGSKSVDSGIYLDSSYKMDYPEMGICIIINNKNFHKSTGMSSRSGTDVDAANLRETFMGLKYQVRNKNDLTREDILELMDSVSKEDHSKRSSFVCVILSHGDEGVIYGTNGPVELKKLTSFFRGDYCRSLTGKPKLFIIQACRGTELDCGIETDSGTDEEMACQKIPVEADFLYAYSTAPGYYSWRNSKDGSWFIQSLCSMLKLYAHKLEFMHILTRVNRKVATEFESFSLDSTFHAKKQIPCIVSMLTKELYFYHLESLALSLTADQMVSALLDAEPPILYSEYDPTRPFSEASMMGLLTNLADRELVHMINWAKRVPGFVDLTLHDQVHLLECAWLEILMIGLVWRSMEHPVKLLFAPNLLLDRNQGKCVEGMVEIFDMLLATSSRFRMMNLQGEEFVCLKSIILLNSGVYTFLSSTLKSLEEKDHIHRVLDKITDTLIHLMAKAGLTLQQQHQRLAQLLLILSHIRHMSNKGMEHLYSMKCKNVVPLYDLLLEAADAHRLHAPTSRGGASVEETDQSHLATAGSTSSHSLQKYYITGEAEGFPATA
modifications: fusion gene Casp3-ED4ER(T2)
B3: Casp9trunc-ER(T2): truncated murine Caspase-9 without CARD domain fused to ER(T2) ligand binding domain, SEQ ID NO: 32 (protein)
chain: MGRQAAKQDPEAVKPLDHLVPVVLGPMGLTAKEQRVVKLDPSQPAVGNLTPVVLGPEELWPARLKPEVLRPETPRPVDIGSGGAHDVCVPGKIRGHADMAYTLDSDPCGHCLIINNVNFCPSSGLGTRTGSNLDRDKLEHRFRWLRFMVEVKNDLTAKKMVTALMEMAHRNHRALDCFVVVILSHGCQASHLQFPGAVYGTDGCSVSIEKIVNIFNGSGCPSLGGKPKLFFIQACGGEQKDHGFEVACTSSQGRTLDSDSEPDAVPYQEGPRPLDQLDAVSSLPTPSDILVSYSTFPGFVSWRDKKSGSWYIETLDGILEQWARSEDLQSLLLRVANAVSAKGTYKQIPGCFNFLRKKLFFKTSVEPSAGDMRAANLWPSPLMIKRSKKNSLALSLTADQMVSALLDAEPPILYSEYDPTRPFSEASMMGLLTNLADRELVHMINWAKRVPGFVDLTLHDQVHLLECAWLEILMIGLVWRSMEHPVKLLFAPNLLLDRNQGKCVEGMVEIFDMLLATSSRFRMMNLQGEEFVCLKSIILLNSGVYTFLSSTLKSLEEKDHIHRVLDKITDTLIHLMAKAGLTLQQQHQRLAQLLLILSHIRHMSNKGMEHLYSMKCKNVVPLYDLLLEAADAHRLHAPTSRGGASVEETDQSHLATAGSTSSHSLQKYYITGEAEGFPATA
modifications: fusion protein Casp9trunc-ER(T2)

How the values were obtained:
Format in all cases: cell-based, mouse
MEF5/N9 cells [1] = experiment: MTT cytotoxicity assay of stably transfected MEF5/N9 clones; conditions: 10^−8 M 4-OH-tamoxifen, 48 h
Method: (§1) To generate stably transfected MEF5/N9 cells, 2·10^6 cells were coelectroporated with 32 μg ER(T2) fusion plasmid DNA linearised with ScaI and 8 μg pPgk-hygro-pA plasmid DNA linearised with XhoI and plated into two 96-well plates. The cells were grown in DMEM medium (Invitrogen) supplemented with 2 mM Glutamine and 10% fetal calf serum at 37° C., 5% CO2 in humid atmosphere, and passaged upon trypsinization. Two days after transfection the medium was supplemented with 250 U/ml of hygromycin (Calbiochem) for the selection of stable integrants. Upon the growth of resistant colonies these were individually expanded in the presence of hygromycin.
To quantify 4-OH-tamoxifen-inducible cell death, we applied the colorimetric MTT assay (Mossman, J. Immunol. Methods, 65, 55 (1983)) allowing the quantification of cell survival. Cells (4·10^3) were plated on 96-well plates. The assay was carried out in three replicas for each sample treated with and without 4-OH-tamoxifen. After 12 h, medium was replaced either with fresh medium or with medium supplemented with 10^−8 M 4-OH-tamoxifen. Following 48 h of 4-OH-tamoxifen treatment, sterile filtered MTT reagent in PBS (Sigma) was added at the concentration of 0.5 mg/ml. Incubation occurred for 4 hours at 37° C. With ongoing reaction time, dark violet MTT formazan crystals appeared on the bottom of the wells containing living cells. The crystals were dissolved in 150 μl 0.04 N HCl/isopropanol to give a homogeneous blue solution suitable for absorbance measurement at a wavelength of 570 nm on the Synergy™ HT Multi-Detection Microplate Reader (BioTek).

MEF5/N9 cells [2] = experiment: Visible phenotypic changes / viability of stably transfected MEF5/N9 clones on 4-OH-tamoxifen treatment; conditions: 10^−8 M 4-OH-tamoxifen, 24 h
Method: as §1
To examine 4-OH-tamoxifen-dependent cell death, 1·10^5 MEF5/N9 cells expressing ER(T2) fusion proteins were plated into each well of a six-well plate. The following day, for each sample the medium in two of four individual wells were replaced with medium supplemented with 10^−8 M 4-hydroxy-tamoxifen. 24 hours after induction with 4-OH-tamoxifen, cells were photographed through a Leica DMI6000B fluorescence microscope with phase contrast either at 10-fold or 20-fold magnification.
Since the responsiveness of the clones, transfected with the same construct, to 4-OH-tamoxifen differed only slightly from each other, only the results obtained from one clone for each construct are shown in the figure.

MEF5/N9 cells [3] = experiment: Transient cotransfection of ER(T2) fusion expression vectors with β-galactosidase reporter; β-galactosidase activity in lysates; conditions: no 4-OH-tamoxifen; transient transfection 50 or 100 ng vector; relative to Cre-ER(T2) without 4-OH-tamoxifen
MEF5/N9 cells [4] = experiment: as above; conditions: 10^−8 M 4-OH-tamoxifen, 48 h; for relative β-galactosidase activity in presence of 4-OH-tamoxifen compared to the negative control: relative to Cre-ER(T2) without 4-OH-tamoxifen
Method: The transformed mouse embryonic fibroblast cell line MEF5/N9 (Schwenk et al., Nucleic Acids Research, 26(6) 1427-1432 (1998)) was obtained from Michel Aguet (University of Zurich, Switzerland). The cells were grown in DMEM medium (Life Technologies) supplemented with 2 mM […] and 10% fetal calf serum at 37° C., 5% CO2 in humid atmosphere and passaged upon trypsinization. One day before transient transfection 4·10^4 cells were plated into a 24-well plate (Falcon). For the transient transfection of MEF5/N9 cells with plasmids, each well received into 500 μl of medium a total amount of 150 ng or 200 ng supercoiled plasmid DNA complexed before with the FuGene6 transfection reagent (Roche Diagnostics GmbH, Mannheim, Germany) according to the manufacturer's protocol. Each 150 ng or 200 ng DNA preparation (FIG. 2 sample 1 to 11) contained 100 ng of the β-Galactosidase expression vector pCMV-β-gal-pA (pCMVβ, Clontech, FIG. 1G, SEQ ID NO: 56), and 100 ng of the fusion ER(T2) expression vectors to be tested (FIG. 2 sample 3-7, 10-11) and the control plasmids (FIG. 2 sample 1-3), except for the samples with the plasmids pCAG-Casp9full-ER(T2)-bpA (FIG. 2 sample 8) and pCAG-Casp9trunc-ER(T2)-bpA (FIG. 2 sample 9), respectively, that received 50 ng of the test vector. For each sample to be tested four individual wells were transfected. Five hours after the addition of the DNA preparations each well received additional 500 μl of growth medium. The following day, the medium of two wells of each sample was replaced by fresh medium. The other two wells received medium containing 10^−8 M 4-hydroxy-tamoxifen (Sigma). 48 hours after induction with 4-OH-tamoxifen, the cells of each well were lysed with 200 μl lysate reagent supplemented with protease inhibitors (Roche Diagnostics GmbH). The lysates were centrifuged and 50 μl were used to determine the β-galactosidase activities using the β-galactosidase reporter gene assay (Roche Diagnostics GmbH) according to the manufacturer's protocol in a microplate luminometer (Berthold Detection Systems GmbH). The mean value and standard deviation of the samples was calculated from the β-galactosidase RLU values obtained from the two transfected wells of each sample. The relative β-galactosidase activity was obtained by comparison to the negative control (pCAG-Cre-ER(T2)-bpA) without 4-OH-tamoxifen.
To investigate the cell death effect of the different ER(T2) fusion constructs quantitatively, we performed transient cotransfections of the ER(T2) fusion protein expression vectors together with a fixed amount of a reporter plasmid coding for β-galactosidase in MEF5/N9 fibroblast cells. Transfected cells were treated 12 hours after transfection with 4-OH-tamoxifen at a concentration of 10^−8 M. Following 48 hours of 4-OH-tamoxifen induction, the cells from the various samples were lysed and the activity of β-galactosidase in the lysates was determined by a chemiluminescence assay and expressed in “Relative Light Units” (RLU) (FIG. 2). As positive controls for 4-OH-tamoxifen-inducible cell death, we prepared samples transfected with the constructs pCAG-HAFas-ER(T2) or pCAG-MFas-ER(T2) together with the reporter plasmid and treatment with 4-OH-tamoxifen. As negative control for this assay served samples which received the reporter plasmid together with the expression vector pCAG-Cre-ER(T2) and that were treated with 4-OH-tamoxifen.
To determine the relative activity of the tested ER(T2) fusion constructs inducing apoptosis in the presence of 4-OH-tamoxifen, the RLU values of β-galactosidase activity were divided individually for each sample by the RLU value obtained from the sample which received the plasmid pCAG-Cre-ER(T2) but was not treated with 4-OH-tamoxifen (defined as negative control). The relative activity of the tested Caspase- or bax-ER(T2) fusion proteins was then compared to the negative control for 4-OH-tamoxifen-dependent cell death defined as an activity of 1.

| Molecule | cell viability in the presence of 4-OH-tamoxifen (MTT) (MEF5/N9 cells [1]) | 4-OH-tamoxifen-dependent cell death, phenotype of stable clones (MEF5/N9 cells [2]) | 4-OH-tamoxifen-dependent cell death, phenotype of stable clones (MEF5/N9 cells [2]; listed as ERBax) | basal toxicity: relative β-galactosidase activity compared to the negative control in absence of 4-OH-tamoxifen (MEF5/N9 cells [3]) [%] | 4-OH-tamoxifen-dependent activity / toxicity in transient transfection (in words) (MEF5/N9 cells [4]) | 4-OH-tamoxifen-dependent cell death, phenotype of stable clones (MEF5/N9 cells [2]; listed as Casp3ER) | relative β-galactosidase activity in presence of 4-OH-tamoxifen compared to the negative control (MEF5/N9 cells [4]) [%] | 4-OH-tamoxifen-dependent cell death, phenotype of stable clones (MEF5/N9 cells [2]; listed as Casp9truncER) |
| --- | --- | --- | --- | --- | --- | --- | --- | --- |
| ER(T2)-Bax: spaceless C-terminal fusion of murine Bax to ER(T2), SEQ ID NO: 55; used as negative control in stable clones | not affected by treatment with 4-OH-tamoxifen | did not respond to 4-OH-tamoxifen | not affected by the treatment with 4-OH-tamoxifen | 84 | no tamoxifen-dependent activity; also recorded: neither the N-terminal nor the C-terminal fusion of Bax to ER(T2) displayed any activity |  |  |  |
| Bax-ER(T2): N-terminal fusion of full length murine Bax to ER(T2) ligand binding domain, SEQ ID NO: 48 |  |  |  | 100 | neither the N-terminal nor the C-terminal fusion of Bax to ER(T2) displayed any activity |  |  |  |
| B1 | not affected by treatment with 4-OH-tamoxifen | neither the two Fas-ER(T2) variants (see FIG. 4 H2, I2) nor Casp3-ER(T2) (FIG. 4 E2) were able to induce apoptosis in the presence of 4-OH-tamoxifen |  | 52 | low compared to the Caspase 8 or Caspase 9 ER(T2) fusion variants | not affected by the treatment with 4-OH-tamoxifen | 28 |  |
| B2 |  |  |  | 52 | could not be regulated in presence of 4-OH-tamoxifen |  |  |  |
| B3 |  | weaker susceptibility to 4-OH-tamoxifen |  | 70 |  |  | 22 | substantial cell death |

Reference: patent US8530168B2, “Fusion protein comprising a Caspase domain and a nuclear hormone receptor binding domain and methods and uses thereof” (Helmholtz Zentrum Munich Deutsches Forschungszentrum fuer …, priority 2007, dated 2013)
